First the molecules themselves.
B1: Phosphatidylinositol 4,5-bisphosphate 3-kinase catalytic subunit delta isoform (Homo sapiens), O00329 (parent)
chain: MPPGVDCPMEFWTKEENQSVVVDFLLPTGVYLNFPVSRNANLSTIKQLLWHRAQYEPLFHMLSGPEAYVFTCINQTAEQQELEDEQRRLCDVQPFLPVLRLVAREGDRVKKLINSQISLLIGKGLHEFDSLCDPEVNDFRAKMCQFCEEAAARRQQLGWEAWLQYSFPLQLEPSAQTWGPGTLRLPNRALLVNVKFEGSEESFTFQVSTKDVPLALMACALRKKATVFRQPLVEQPEDYTLQVNGRHEYLYGSYPLCQFQYICSCLHSGLTPHLTMVHSSSILAMRDEQSNPAPQVQKPRAKPPPIPAKKPSSVSLWSLEQPFRIELIQGSKVNADERMKLVVQAGLFHGNEMLCKTVSSSEVSVCSEPVWKQRLEFDINICDLPRMARLCFALYAVIEKAKKARSTKKKSKKADCPIAWANLMLFDYKDQLKTGERCLYMWPSVPDEKGELLNPTGTVRSNPNTDSAAALLICLPEVAPHPVYYPALEKILELGRHSECVHVTEEEQLQLREILERRGSGELYEHEKDLVWKLRHEVQEHFPEALARLLLVTKWNKHEDVAQMLYLLCSWPELPVLSALELLDFSFPDCHVGSFAIKSLRKLTDDELFQYLLQLVQVLKYESYLDCELTKFLLDRALANRKIGHFLFWHLRSEMHVPSVALRFGLILEAYCRGSTHHMKVLMKQGEALSKLKALNDFVKLSSQKTPKPQTKELMHLCMRQEAYLEALSHLQSPLDPSTLLAEVCVEQCTFMDSKMKPLWIMYSNEEAGSGGSVGIIFKNGDDLRQDMLTLQMIQLMDVLWKQEGLDLRMTPYGCLPTGDRTGLIEVVLRSDTIANIQLNKSNMAATAAFNKDALLNWLKSKNPGEALDRAIEEFTLSCAGYCVATYVLGIGDRHSDNIMIRESGQLFHIDFGHFLGNFKTKFGINRERVPFILTYDFVHVIQQGKTNNSEKFERFRGYCERAYTILRRHGLLFLHLFALMRAAGLPELSCSKDIQYLKDSLALGKTEEEALKHFRVKFNEALRESWKTKVNWLAHNVSKDNRQ

In the experiment the parent is B1. The conditions noted are these: with p85a_human PIK3R1, P27986.
Sequence of p85a_human PIK3R1, P27986 (P27986 whole entry): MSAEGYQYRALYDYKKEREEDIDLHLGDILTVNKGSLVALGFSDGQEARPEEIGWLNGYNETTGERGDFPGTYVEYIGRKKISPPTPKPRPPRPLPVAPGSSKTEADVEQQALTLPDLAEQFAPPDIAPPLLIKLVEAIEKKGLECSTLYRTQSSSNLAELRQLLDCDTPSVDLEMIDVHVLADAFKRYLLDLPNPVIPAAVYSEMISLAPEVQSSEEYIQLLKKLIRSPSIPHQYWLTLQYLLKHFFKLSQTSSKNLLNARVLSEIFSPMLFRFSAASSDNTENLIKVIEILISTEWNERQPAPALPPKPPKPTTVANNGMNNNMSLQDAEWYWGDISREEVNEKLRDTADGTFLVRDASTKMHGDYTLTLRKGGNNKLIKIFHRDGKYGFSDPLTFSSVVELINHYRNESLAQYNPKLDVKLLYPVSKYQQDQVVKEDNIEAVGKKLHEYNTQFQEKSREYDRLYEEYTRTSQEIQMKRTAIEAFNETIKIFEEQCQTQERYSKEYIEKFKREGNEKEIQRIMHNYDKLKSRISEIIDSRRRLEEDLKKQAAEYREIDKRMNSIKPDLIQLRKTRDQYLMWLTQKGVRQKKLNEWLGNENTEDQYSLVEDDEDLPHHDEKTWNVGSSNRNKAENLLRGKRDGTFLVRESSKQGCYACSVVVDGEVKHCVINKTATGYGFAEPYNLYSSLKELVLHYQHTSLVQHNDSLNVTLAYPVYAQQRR
E1021K: the “effect of a mutation on the interaction” value is “with no effect”.

As to E525K, the “effect of a mutation on the interaction” value was “with no effect”.

The record behind these values is IntAct's records for PubMed 24165795.
